Data reported in patent US20190016816A1 (APTEVO RESEARCH AND DEVELOPMENT, published 2019).

How the values were obtained:
[1] = biological target: T1, cynomolgus CD137 on cells (cynomolgus macaque, UniProt A9YYE7 24-254); assay: flow cytometry, MFI of all CD3+CD8+ cells gated from CD3-stimulated cynomolgus PBMC
T1 construct: whole, on cells; also called CHO-K1/cynomolgus CD137 cell line; cynomolgus monkey CD137 on CD3-stimulated primary CD8 T cells
Procedure: (§1) Following 48 h of incubation with or without CD3, human and cynomolgus PBMC were harvested, pooled, recounted and diluted in FACS buffer (PBS+0.5% BSA, 0.05% NaN₃) to a concentration of 5×10⁶ cells/mL. 50 μL (0.25×10⁶ cells) of cell solution was added to a 96-well FACS staining plate (Falcon #351190). Following 10 min of Fc-blocking in RT using Beriglobin (hIgG, 200 μg/mL), cells were washed in FACS buffer and then incubated for 1 h in 4° C. with 100 μL of the biotinylated ALG.APV-210 or negative control. The antibodies were added in a serial dilution starting either at 5 μg/mL titrating down in a 12 step ⅓ dilution down to 0.0003 μg/mL (exp 1) or 1 μg/mL titrating down in a 12 step ½ dilution down to 0.0005 μg/mL (exp 2). […] Cells were analysed for ALG.APV-210 binding using flow cytometry by gating on viable, single cells expressing CD3 and CD8. MFI values (FMO subtracted) from 2 independent experiments as well as normalized pooled data from 2 experiments and EC₅₀-values were determined and plotted using GraphPad Prism 7, non-linear regression log (agonist) vs. normalized response—variable slope, n=6 donors/group.

[2] = biological target: T1, cynomolgus CD137 on cells; assay: flow cytometry, percentage of CD8 T cells (gated from CD3-stimulated cynomolgus PBMC) bound by the biotinylated antibody, exp 1, n=3 donors
Procedure: as §1

human CD137 on cells = biological target: T2, human CD137 on cells (human, UniProt Q07011 24-255); assay: flow cytometry, CD8 T cells gated from CD3-stimulated human PBMC, biotinylated antibody + streptavidin-APC, exp 1, n=3 donors
T2 construct: also called 4-1BB; TNFRSF9 (CHO-K1/human CD137 cells)
Procedure: as §1, with “control.” for “control. The antibodies were added in a serial dilution starting either at 5 μg/mL titrating down in a 12 step ⅓ dilution down to 0.0003 μg/mL (exp 1) or 1 μg/mL titrating down in a 12 step ½ dilution down to 0.0005 μg/mL (exp 2).”
In ELISA tests, the binding of biotinylated ALG.APV-210 to CD137 was similar to that of the non-biotinylated ALG.APV-210 (0.6 nM vs. 0.7 nM). The binding (EC₅₀) of the biotinylated ALG.APV-210 to its immunomodulatory target CD137 when expressed on activated primary human and cynomolgus CD8 T cells from CD3 stimulated PBMC was assessed and compared between the two species as well as to unstimulated cells. […]

human 5T4 on cells = biological target: T3, human 5T4 on cells (human, UniProt Q13641 32-420); assay: flow cytometry, CT26-hu5T4^int cells, streptavidin-PE, normalized MFI of 2 pooled experiments
T3 construct: also called TPBG; hu5T4
T3 sequence: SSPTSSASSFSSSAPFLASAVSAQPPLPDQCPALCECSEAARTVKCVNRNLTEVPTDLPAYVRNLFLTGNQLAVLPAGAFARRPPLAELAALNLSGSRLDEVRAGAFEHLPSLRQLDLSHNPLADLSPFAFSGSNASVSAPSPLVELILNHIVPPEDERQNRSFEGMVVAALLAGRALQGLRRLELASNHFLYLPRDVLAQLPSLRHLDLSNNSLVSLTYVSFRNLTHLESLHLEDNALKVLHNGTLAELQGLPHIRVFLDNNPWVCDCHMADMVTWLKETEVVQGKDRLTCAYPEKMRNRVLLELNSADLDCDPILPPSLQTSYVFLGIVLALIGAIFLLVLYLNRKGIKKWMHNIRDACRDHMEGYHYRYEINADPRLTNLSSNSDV
Procedure: Prior to the FACS staining, all cell lines were characterized for their 5T4 expression levels using a receptor density kit (Quantum Simply Cellular, anti-human IgG, Bangs Laboratories, Inc). Adherent cell lines were cultured according to their supplier's instructions and were harvested from their cell culture flasks using Trypsin/EDTA, counted in R10 medium in a Burker chamber, and diluted in FACS buffer (PBS+0.5% BSA, 0.05% NaN₃) to a concentration of 4×10⁶ cells/mL. 50 μL (0.20×10⁶) of cell solution was added to a 96-well FACS staining plate (Falcon #351190). Cells were incubated for 20 min in 4° C. with 50 μL of the biotinylated ALG.APV-210 (2× final concentration). The antibodies were added in a serial dilution starting at 20 μg/mL titrating down in a 12 step ½ dilution down to 0.010 μg/mL. Following 2× washing with FACS buffer, cells were incubated for 30 min in 4° C. with 100 μL of a secondary antibody (streptavidin-PE, BD #554061, diluted 1/500). […] Cells were analysed for ALG.APV-210 binding using flow cytometry (FACSVerse) by gating on single cells. MFI values (secondary antibody only subtracted) from 1 out of 2 independent experiments, as well as normalized data and EC₅₀-values of pooled data from 2 experiments were determined and plotted using GraphPad Prism 7, non-linear regression log (agonist) vs. normalized response—variable slope.

T1 sequence (A9YYE7 entry or part of it): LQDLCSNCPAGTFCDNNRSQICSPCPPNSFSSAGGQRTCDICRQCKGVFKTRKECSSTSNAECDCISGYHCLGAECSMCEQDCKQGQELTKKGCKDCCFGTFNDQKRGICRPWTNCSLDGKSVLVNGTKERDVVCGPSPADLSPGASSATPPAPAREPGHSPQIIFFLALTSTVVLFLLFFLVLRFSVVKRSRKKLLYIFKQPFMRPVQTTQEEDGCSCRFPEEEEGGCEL
T2 sequence (Q07011 24-255 limits assumed): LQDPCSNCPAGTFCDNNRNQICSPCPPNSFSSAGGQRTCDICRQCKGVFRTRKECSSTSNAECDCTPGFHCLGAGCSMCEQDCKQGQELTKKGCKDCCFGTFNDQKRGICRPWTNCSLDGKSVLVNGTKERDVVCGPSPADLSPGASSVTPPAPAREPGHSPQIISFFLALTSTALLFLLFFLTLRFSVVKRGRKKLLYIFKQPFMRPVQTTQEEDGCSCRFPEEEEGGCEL

B1: biotinylated ALG.APV-210 (bispecific antibody)
chain: EVQLLESGGGLVQPGGSLRLSCAASGFTFSHGSMYWVRQAPGKGLEWVSSISSGSGSTYYADSVKGRFTISHDNSKNTLYLQMNSLRAEDTAVYYCARSSYYGSYYSIDYWGQGTLVTVSSGGGGSGGGGSGGGGSGGGGSDIQMTQSPSSLSASVGDRVTITCRASQSISSYLNWYQQKPGKAPKLLIYAASSLQSGVPSRFSGSGSGTDFTLTISSLQPEDFATYYCQQYYDNLPTFGQGTKLEIKEPKSSDKTHTCPPCPAPEAAGAPSVFLFPPKPKDTLMISRTPEVTCVVVDVSHEDPEVKFNWYVDGVEVHNAKTKPREEQYNSTYRVVSVLTVLHQDWLNGKEYKCAVSNKALPAPIEKTISKAKGQPREPQVYTLPPSRDELTKNQVSLTCLVKGFYPSDIAVEWESNGQPENNYKTTPPVLDSDGSFFLYSKLTVDKSRWQQGNVFSCSVMHEALHNHYTQKSLSLSPGSGGGGSGGGGSGGGGSPSEVQLLESGGGLVQPGGSLRLSCAASGFTFSSYAMSWVRQAPGKCLEWVSAISGSGGSTYYADSVKGRFTISRDNSKNTLYLQMNSLRAEDTAVYYCARYYGGYYSAWMDYWGQGTLVTVSSGGGGSGGGGSGGGGSGGGGSDIQMTQSPSSLSASVGDRVTITCRASQSISSFLNWYQQKPGKAPKLLIYAASSLQSGVPSRFSGSGSGTDFTLTISSLQPEDSATYYCQQTYGYLHTFGCGTKLEIKR
notes: also called ALG.APV-210 (biotinylated for FACS detection)
EC50 [1]: 0.236 nM
EC50 (read off the curve) [2]: ~0.02 nM
EC50 (read off the curve) (human CD137 on cells): ~0.3 nM
EC50 (human 5T4 on cells): 12 nM
